Data from patent US7011975 (UNIVERSITY OF GEORGIA RESEARCH FOUNDATION, dated 2006).

Biological target: Cry1Ac toxin (Bacillus thuringiensis, UniProt P05068 29-623, rhodamine label (5(6)-TAMRA SE) in the cell-staining assay; coupled to CNBr-activated Sepharose 4B in the affinity assay)
Assay: rhodamine-labeled toxin staining of fixed Sf21 cells, confocal microscopy

B1: Manduca sexta 120 kDa aminopeptidase N APN1a expressed in Sf21 cells transfected with pHSP120 (receptor)
chain: PSYRLPTTTRPRHYAVTLTPYFDVVPAGVSSLTTFSFDGEVTIYISPTQANVNEIVLHCNDLTIQSLRVTYVSGNSEVDITATGQTFTCEMPYSFLRIRTSTPLVMNQEYIIRSTFRGNLQTNMRGFYRSWYVDRTGKRWMATTQLQPGHARQAFPCYDEPGFKATFDITMNREADFSPTISNMPIRATTTLTNGRISETFFTTPLTSTYLLAFIVSHYQVISNNNNAARPFRIYARNNVGSQGDWSLEMGEKLLLAMENYTAIPYYTMAQNIDMKQAAIPDFSAGAMENWGLLTYREALILYDPLNSNHHYRQRVANIVSHEIAHMWFGNLVTCAWWDNLWLNEGFARFYQYYLTATVDPELGYEIRFIPEQLQVAMFSDSVDSAHALTDTSVNDPVAVSAHFSTITYARGAAILRMTQHLLSYDTFVKGLRQYLRARQFDVAEPYHLFSALDAAAAEDNALAAYTGITIDAYFRTWSEKAGHPLLSVTVDHETGRMTLVQARWERNTGVSRFPGLWHIPITWTRAGAPDFENLKPSQVMTGQSLVIDRGTRGQEWVIFNKQVSGFYRVNYDNTTWGLITRALRSANRTVIHELSRSQIVDDVFQLARSGVMSYQRALNILSYLRFEDAYAPWLSAISGFNWVIRRFAHDAANLQTLQNQIIGLSEAVVARLGFTEVSGGTYMTDLQRLHVMQFLCNVGHQQCIDTGRQNFLNWRNGSFIPANMRPWVYCTGLRYGSAEDFNYFWNRYIVEDLSNEKVVMLEAAGCTRDQASLEKFLNAIVSGNDDVRPQDHSSALSSAITSNDVNTMRAFDWLTKNVDQITRTLGSITSPLNTITSRLLTEAQMTQVQTWLDANRNTIGAAYNTGVNGIATSRANLQWSANRMSEFLRFFETGFVDDVPSEATTVAPPAETTVTPSTFPPTEAPATTPAPG
modifications: GPI anchor at the C-terminus; heterogeneously glycosylated (residues not stated)
notes: also called expressed APN; expressed 120 kDa APN
- binding result: no binding (tested: 1 µg/ml)
